Consider 1 molecule from US20060026702A1 (DUKE UNIVERSITY, published 2006).

This assay deals with T1, HA epitope-tagged PI3Kγ (pCMV-PI3 Kp110γ wild type) (Homo sapiens (Human), UniProt P48736 1-1102).
T1 construct: Full-length wild type with HA tag, expressed in transfected NIH-3T3 cells; also called HA-PI3Kγ
Briefly: co-immunoprecipitation from cytosolic extracts of transfected NIH-3T3 cells.

T1 sequence (P48736 other isoform, or with tags, fused parts or gaps limits assumed): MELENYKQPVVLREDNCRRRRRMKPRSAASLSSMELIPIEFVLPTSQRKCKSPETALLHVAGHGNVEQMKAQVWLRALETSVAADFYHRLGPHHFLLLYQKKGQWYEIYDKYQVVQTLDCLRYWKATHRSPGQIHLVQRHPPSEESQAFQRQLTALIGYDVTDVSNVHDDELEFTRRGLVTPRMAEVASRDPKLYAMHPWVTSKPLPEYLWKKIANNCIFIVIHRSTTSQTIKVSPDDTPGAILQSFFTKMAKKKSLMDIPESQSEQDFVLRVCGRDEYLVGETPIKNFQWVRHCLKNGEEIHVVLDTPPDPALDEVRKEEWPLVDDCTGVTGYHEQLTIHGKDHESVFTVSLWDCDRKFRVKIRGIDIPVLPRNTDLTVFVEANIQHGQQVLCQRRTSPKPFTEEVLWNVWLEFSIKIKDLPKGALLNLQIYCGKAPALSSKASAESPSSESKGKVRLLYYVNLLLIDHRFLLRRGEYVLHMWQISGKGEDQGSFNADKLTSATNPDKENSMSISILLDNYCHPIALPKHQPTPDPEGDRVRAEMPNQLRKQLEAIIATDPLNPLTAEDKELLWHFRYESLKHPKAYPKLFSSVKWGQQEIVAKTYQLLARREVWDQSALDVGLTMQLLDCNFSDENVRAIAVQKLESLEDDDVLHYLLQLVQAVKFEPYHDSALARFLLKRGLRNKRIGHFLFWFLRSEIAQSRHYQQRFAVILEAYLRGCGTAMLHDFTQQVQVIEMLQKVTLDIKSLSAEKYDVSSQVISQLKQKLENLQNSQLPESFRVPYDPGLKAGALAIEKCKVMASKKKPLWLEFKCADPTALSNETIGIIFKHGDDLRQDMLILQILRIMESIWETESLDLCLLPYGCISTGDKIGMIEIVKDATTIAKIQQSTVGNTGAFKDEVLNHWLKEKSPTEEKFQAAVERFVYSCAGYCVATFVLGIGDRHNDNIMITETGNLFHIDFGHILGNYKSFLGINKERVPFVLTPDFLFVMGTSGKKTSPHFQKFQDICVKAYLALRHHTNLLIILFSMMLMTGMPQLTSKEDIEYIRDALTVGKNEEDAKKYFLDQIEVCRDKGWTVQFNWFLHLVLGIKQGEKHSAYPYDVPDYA

B1: β-adrenergic receptor kinase 1 (βARK1), bovine cDNA expressed in transfected cells (enzyme, UniProt P21146 1-689, looked up)
chain: MADLEAVLADVSYLMAMEKSKATPAARASKKILLPEPSIRSVMQKYLEDRGEVTFEKIFSQKLGYLLFRDFCLKHLEEAKPLVEFYEEIKKYEKLETEEERLVCSREIFDTYIMKELLACSHPFSKSAIEHVQGHLVKKQVPPDLFQPYIEEICQNLRGDVFQKFIESDKFTRFCQWKNVELNIHLTMNDFSVHRIIGRGGFGEVYGCRKADTGKMYAMKCLDKKRIKMKQGETLALNERIMLSLVSTGDCPFIVCMSYAFHTPDKLSFILDLMNGGDLHYHLSQHGVFSEADMRFYAAEIILGLEHMHNRFVVYRDLKPANILLDEHGHVRISDLGLACDFSKKKPHASVGTHGYMAPEVLQKGVAYDSSADWFSLGCMLFKLLRGHSPFRQHKTKDKHEIDRMTLTMAVELPDSFSPELRSLLEGLLQRDVNRRLGCLGRGAQEVKESPFFRSLDWQMVFLQKYPPPLIPPRGEVNAADAFDIGSFDEEDTKGIKLLDSDQELYRNFPLTISERWQQEVAETVFDTINAETDRLEARKKTKNKQLGHEEDYALGKDCIMHGYMSKMGNPFLTQWQRRYFYLFPNRLEWRGEGEAPQSLLTMEEIQSVEETQIKERKCLLLKIRGGKQFVLQCDSDPELVQWKKELRDAYREAQQLVQRVPKMKNKPRSPVVELSKVPLIQRGSANGL
notes: Over-expressed in NIH-3T3 or HEK 293 cells and immunoprecipitated with a βARK1 monoclonal antibody; also called GRK2; β3ARK1
On to B1, for which the binding result was “binds”.
